Reference: US20190211071A1 (NATIONAL UNIVERSITY OF SINGAPORE, published 2019)
Positions of bridges follow the written chain, without caps; N, C: chain ends. No end group written: not given here.

T1: rat NPR-A (rat, UniProt P18910 29-1057)
T1 sequence (looked up): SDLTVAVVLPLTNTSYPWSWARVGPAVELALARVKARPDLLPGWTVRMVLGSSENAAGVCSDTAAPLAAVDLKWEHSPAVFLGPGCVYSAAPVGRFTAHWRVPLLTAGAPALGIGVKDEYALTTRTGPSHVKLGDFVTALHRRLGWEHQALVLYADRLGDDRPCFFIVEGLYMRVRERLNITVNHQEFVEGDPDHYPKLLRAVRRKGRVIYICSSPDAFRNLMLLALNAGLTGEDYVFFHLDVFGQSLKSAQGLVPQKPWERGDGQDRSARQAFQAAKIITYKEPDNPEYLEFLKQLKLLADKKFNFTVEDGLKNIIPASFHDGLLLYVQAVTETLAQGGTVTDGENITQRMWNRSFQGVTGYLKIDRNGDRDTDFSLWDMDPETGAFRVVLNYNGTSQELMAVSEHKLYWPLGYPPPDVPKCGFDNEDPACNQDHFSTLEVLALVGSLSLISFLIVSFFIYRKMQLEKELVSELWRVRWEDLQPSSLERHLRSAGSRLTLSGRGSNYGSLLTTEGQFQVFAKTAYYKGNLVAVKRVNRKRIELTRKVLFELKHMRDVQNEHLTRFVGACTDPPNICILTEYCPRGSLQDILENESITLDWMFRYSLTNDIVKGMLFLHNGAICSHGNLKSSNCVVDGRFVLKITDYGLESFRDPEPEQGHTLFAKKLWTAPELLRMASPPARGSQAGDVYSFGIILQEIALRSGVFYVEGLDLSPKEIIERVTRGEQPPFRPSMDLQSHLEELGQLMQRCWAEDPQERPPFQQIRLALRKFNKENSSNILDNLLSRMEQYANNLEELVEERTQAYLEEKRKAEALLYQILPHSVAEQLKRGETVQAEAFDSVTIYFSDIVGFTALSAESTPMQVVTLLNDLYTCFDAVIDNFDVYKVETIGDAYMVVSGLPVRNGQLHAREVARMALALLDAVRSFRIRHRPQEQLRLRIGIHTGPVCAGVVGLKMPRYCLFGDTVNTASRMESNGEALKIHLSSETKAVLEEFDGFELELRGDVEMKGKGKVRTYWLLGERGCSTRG


Each binder was assayed against T1, rat NPR-A (assay: cell-based or functional assay).

For GLLISCFGRRIDRISHTSGIGCRH (disulfide 6-22) [^GRGK-Ring], the “activation kinetics compared to K-Ring” value was 3 fold.

In the case of GLLISCFGRRIDRISHTSGIGCRH (disulfide 6-22) [^GRGK-Ring], the “potency of cGMP response compared to K-Ring” value is reported as 4 fold.

With GLLISCFDRRIDRISHTSDIGCRH (disulfide 6-22) [K-Ring] the “time to produce similar levels of cGMP (time-chase at EC50 concentration)” value was 30 min.

Target: T1, rat NPR-A
Assay: cell-based or functional assay
Remark: another data set of the same source

In order of rising “NPR-A activation potency IC50” value:
1. GLLISCFDRRIDRISHTSDIGCNSFRY (disulfide 6-22) [K-Ring^NSFRY]  43.8 nM
2. SLRRSSCFDRRMDRIGAQSDLGCNSFRY (disulfide 7-23 (inferred)) [^DRDANP]  45.2 nM
3. GLLISCFGRRIDRISHTSDIGCRH (disulfide 6-22) [^GRDK-Ring]  50.7 nM
4. GLLISCFGRRIDRISHTSGIGCRH (disulfide 6-22) [^GRGK-Ring]  87.7 nM
5. SLRRSSCFDGRMDRIGAQSDLGCNSFRY (disulfide 7-23 (inferred)) [^DGDANP]  135 nM
6. GLLISCFDRRIDRISHTSDIGCRH (disulfide 6-22) [K-Ring]  244 nM
7. GLLISCFDRRIDRISHTSGIGCRH (disulfide 6-22) [^DRGK-Ring]  694 nM
8. GLLISCFDGRIDRISHTSDIGCRH (disulfide 6-22) [^DGDK-Ring]  866 nM

In order of rising “NPR-A activation potency: Ratio compared ANP” value:
1. GLLISCFDRRIDRISHTSDIGCNSFRY (disulfide 6-22) [K-Ring^NSFRY]  2.5 ratio
2. SLRRSSCFDRRMDRIGAQSDLGCNSFRY (disulfide 7-23 (inferred)) [^DRDANP]  2.6 ratio
3. GLLISCFGRRIDRISHTSDIGCRH (disulfide 6-22) [^GRDK-Ring]  2.9 ratio
4. GLLISCFGRRIDRISHTSGIGCRH (disulfide 6-22) [^GRGK-Ring]  5.1 ratio
5. SLRRSSCFDGRMDRIGAQSDLGCNSFRY (disulfide 7-23 (inferred)) [^DGDANP]  7.8 ratio
6. GLLISCFDRRIDRISHTSDIGCRH (disulfide 6-22) [K-Ring]  14.1 ratio
7. GLLISCFDRRIDRISHTSGIGCRH (disulfide 6-22) [^DRGK-Ring]  40.1 ratio
8. GLLISCFDGRIDRISHTSDIGCRH (disulfide 6-22) [^DGDK-Ring]  50.1 ratio

In order of rising “NPR-A activation potency: Ratio compared wild type NPs” value:
1. GLLISCFDRRIDRISHTSDIGCNSFRY (disulfide 6-22) [K-Ring^NSFRY]  -5.6 ratio
2. GLLISCFGRRIDRISHTSDIGCRH (disulfide 6-22) [^GRDK-Ring]  -4.8 ratio
3. GLLISCFGRRIDRISHTSGIGCRH (disulfide 6-22) [^GRGK-Ring]  -2.8 ratio
4. GLLISCFDRRIDRISHTSDIGCRH (disulfide 6-22) [K-Ring]  1 ratio
5. SLRRSSCFDRRMDRIGAQSDLGCNSFRY (disulfide 7-23 (inferred)) [^DRDANP]  2.6 ratio
6. GLLISCFDRRIDRISHTSGIGCRH (disulfide 6-22) [^DRGK-Ring]  2.8 ratio
7. GLLISCFDGRIDRISHTSDIGCRH (disulfide 6-22) [^DGDK-Ring]  3.6 ratio
8. SLRRSSCFDGRMDRIGAQSDLGCNSFRY (disulfide 7-23 (inferred)) [^DGDANP]  7.8 ratio

In order of rising “Rate of generation of cGMP (pmol cGMP/pmol peptide)” value:
1. GLLISCFDGRIDRISHTSDIGCRH (disulfide 6-22) [^DGDK-Ring]  0.005 pmol cGMP/pmol peptide
2. GLLISCFDRRIDRISHTSGIGCRH (disulfide 6-22) [^DRGK-Ring]  0.007 pmol cGMP/pmol peptide
3. GLLISCFDRRIDRISHTSDIGCRH (disulfide 6-22) [K-Ring]  0.0228 pmol cGMP/pmol peptide
4. GLLISCFGRRIDRISHTSDIGCRH (disulfide 6-22) [^GRDK-Ring]  0.113 pmol cGMP/pmol peptide
5. SLRRSSCFDGRMDRIGAQSDLGCNSFRY (disulfide 7-23 (inferred)) [^DGDANP]  0.14 pmol cGMP/pmol peptide
6. GLLISCFGRRIDRISHTSGIGCRH (disulfide 6-22) [^GRGK-Ring]  0.19 pmol cGMP/pmol peptide
7. GLLISCFDRRIDRISHTSDIGCNSFRY (disulfide 6-22) [K-Ring^NSFRY]  0.31 pmol cGMP/pmol peptide
8. SLRRSSCFDRRMDRIGAQSDLGCNSFRY (disulfide 7-23 (inferred)) [^DRDANP]  0.38 pmol cGMP/pmol peptide

In order of rising “Rate of generation of cGMP: Ratio compared ANP” value:
1. SLRRSSCFDRRMDRIGAQSDLGCNSFRY (disulfide 7-23 (inferred)) [^DRDANP]  21 ratio
2. GLLISCFDRRIDRISHTSDIGCNSFRY (disulfide 6-22) [K-Ring^NSFRY]  25.7 ratio
3. GLLISCFGRRIDRISHTSGIGCRH (disulfide 6-22) [^GRGK-Ring]  41.9 ratio
4. SLRRSSCFDGRMDRIGAQSDLGCNSFRY (disulfide 7-23 (inferred)) [^DGDANP]  56.9 ratio
5. GLLISCFGRRIDRISHTSDIGCRH (disulfide 6-22) [^GRDK-Ring]  70.5 ratio
6. GLLISCFDRRIDRISHTSDIGCRH (disulfide 6-22) [K-Ring]  350 ratio
7. GLLISCFDRRIDRISHTSGIGCRH (disulfide 6-22) [^DRGK-Ring]  1140 ratio
8. GLLISCFDGRIDRISHTSDIGCRH (disulfide 6-22) [^DGDK-Ring]  1590 ratio

In order of falling “Rate of generation of cGMP: Ratio compared wild type NPs” value:
1. SLRRSSCFDGRMDRIGAQSDLGCNSFRY (disulfide 7-23 (inferred)) [^DGDANP]  56.9 ratio
2. SLRRSSCFDRRMDRIGAQSDLGCNSFRY (disulfide 7-23 (inferred)) [^DRDANP]  21 ratio
3. GLLISCFDRRIDRISHTSDIGCNSFRY (disulfide 6-22) [K-Ring^NSFRY]  13.6 ratio
4. GLLISCFGRRIDRISHTSGIGCRH (disulfide 6-22) [^GRGK-Ring]  8.3 ratio
5. GLLISCFGRRIDRISHTSDIGCRH (disulfide 6-22) [^GRDK-Ring]  5 ratio
6. GLLISCFDGRIDRISHTSDIGCRH (disulfide 6-22) [^DGDK-Ring]  4.6 ratio
7. GLLISCFDRRIDRISHTSGIGCRH (disulfide 6-22) [^DRGK-Ring]  3.2 ratio
8. GLLISCFDRRIDRISHTSDIGCRH (disulfide 6-22) [K-Ring]  1 ratio
